T1: ribosomal protein bS1 of the M. smegmatis 70S ribosome (M. smegmatis (mc2155), UniProt A0QYY6 1-479)
T1 sequence: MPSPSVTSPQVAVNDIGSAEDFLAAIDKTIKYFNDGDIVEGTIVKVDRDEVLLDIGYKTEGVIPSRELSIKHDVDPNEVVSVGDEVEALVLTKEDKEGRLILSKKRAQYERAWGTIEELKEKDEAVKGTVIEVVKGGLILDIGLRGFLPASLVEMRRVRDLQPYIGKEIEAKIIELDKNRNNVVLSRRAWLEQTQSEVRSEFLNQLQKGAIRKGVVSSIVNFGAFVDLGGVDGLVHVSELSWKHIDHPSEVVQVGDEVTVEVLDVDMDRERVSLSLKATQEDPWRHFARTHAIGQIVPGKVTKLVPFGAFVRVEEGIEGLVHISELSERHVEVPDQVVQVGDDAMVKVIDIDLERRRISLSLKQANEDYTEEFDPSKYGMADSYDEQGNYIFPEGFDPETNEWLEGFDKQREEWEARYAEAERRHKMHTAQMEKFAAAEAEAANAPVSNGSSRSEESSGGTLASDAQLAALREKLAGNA

B1: RafH (ribosome associated factor under hypoxia), M. smegmatis MSMEG_3935 (natural protein)
chain: MDVDVSTDGELPGAAEYAREKIGRLSRRAHRPVLHARVRLTRHGDPAVERPVIAQANLDVNGRQVRAQVEGVNAREAVDRLEARLRSRLERIAEHWEARRGGVPAEAGREWRHESEPARRPGYFPRPPEERRIIRRKSFSMVPCTVDEAALEMEMLDYDFHLFTEKGTGFAAVLYKGGPTGYRLVLVIPVPADELSPFEKPITISTHPAPCLTQRDAVERLGLLGLPFLFYIDAAEGRASVIYRRYDGHYGLITPADG

Tests used:
[1] = biological target: B1; test: cryo-EM structure
[2] = biological target: T1, ribosomal protein bS1 of the M. …; test: cryo-EM structure

Binder	binding result [1]	binding result [2]
ribosomal protein uS11 of the M. smegmatis 70S ribosome (natural protein) not shown	binds	
ribosomal protein uS2 of the M. smegmatis 70S ribosome (natural protein) MAVVTMKQLLDSGAHFGHQTRRWNPKMKRFIFTDRNGIYIIDLQQTLTYIDKAYEFVKETVAHGGTVLFVGTKKQAQESIAEEATRVGMPYVNQRWLGGMLTNFSTVHKRLQRLKELEAMEQTGGFEGRTKKEILMLTREKNKLERSLGGIRDMQKVPSAVWVVDTNKEHIAVGEARKLGIPVIAILDTNCDPDVVDYPIPGNDDAIRSAALLTKVIASAVAEGLQARAGQGSGEKPAEGAEPLAEWEQELLAGATAGAADASAEGAAAPESSTDAS		binds
B1		binds
ribosomal protein uS9 of the M. smegmatis 70S ribosome (natural protein) MTDVTETEVVTESAEPREPVIIDRPIQTVGRRKEAVVRVRLVPGTGQFNLDGRTLENYFPNKVHQQLIKAPLVTVDRVDQFDIYAHLDGGGPSGQAGALRLAIARALILVQPEDRPALKKAGFLTRDPRAIERKKYGLKKARKAPQYSKR	binds	
